{"source": "patent US20160010082A1", "about": "(University of California, published 2016)", "binders": {"B1": {"name": "eCPX displaying the VEGF binding peptide at the N-terminus (other)", "chain": "GQSGQVEPNCDIHVMWEWECFERLGGQSGQSGDYNKNQYYGITAGPAYRINDWASIYGVVGVGYGKFQTTEYPTYKHDTSDYGFSYGAGLQFNPMENVALDFSYEQSRIRSVDVGTWILSVGYRFGSKSRRATSTVTGGYAQSDAQGQMNKMGGFNLKYRYEEDNSPLGVIGSFTYTEKSRTAS", "notes": "Disulfide-constrained 19-mer; also called V114"}, "B2": {"name": "CPX-L2-3 displaying SApep at the N-terminus (other)", "chain": "GQSGQAECHPQGPPCIEGRKGGQSGQSGDYNKNQYYGITAGPAYRINDWASIYGVVGVGYGKFQTTEYPTYKHDTSDYGFSYGAGLQFNPMENVALDFSYEQSRIRSVDVGTWIISVGYRFGTRGSQATSTVTGGYAQSDAQGQMNKMGGFNLKYRYEEDNSPLGVIGSFTYTEKSRTAS"}, "B3": {"name": "CPX-L2-4 displaying SApep at the N-terminus (other)", "chain": "B2 chain with I115L, T123H, G125S, S126H, Q127R"}, "B4": {"name": "CPX-L2-6 displaying SApep at the N-terminus (other)", "chain": "B2 chain with I115V, S116A, T123A, S126R, Q127H"}, "B5": {"name": "CPX-L2-8 displaying SApep at the N-terminus (other)", "chain": "B2 chain with I115V, T123P, R124N, G125K, Q127R"}, "B6": {"name": "CPX-L2-5 displaying SApep at the N-terminus (other)", "chain": "B2 chain with T123D, G125K, S126R, Q127R"}, "B7": {"name": "CPX-L2-1 (enhanced CPX, eCPX) displaying SApep at the N-terminus (other)", "chain": "B2 chain with I115L, T123S, R124K, G125S, S126R, Q127R", "notes": "also called eCPX-nSApep"}, "B8": {"name": "CPX-L2-2 displaying SApep at the N-terminus (other)", "chain": "B2 chain with I115F, T123R, R124K, G125N, Q127H"}, "B9": {"name": "CPX-L2-9 displaying SApep at the N-terminus (other)", "chain": "B2 chain with T123P, R124H, G125N, Q127R"}, "B10": {"name": "CPX-L2-7 displaying SApep at the N-terminus (other)", "chain": "B2 chain with I115V, R124H, G125N"}, "B11": {"name": "CPX-L2-10 displaying SApep at the N-terminus (other)", "chain": "GQSGQAECHPQGPPCIEGRKGGQSGQSGDYNKNQYYGITAGPAYRINDWASIYGVVGVGYGKFQTTEYPTYKHDTSDYGFSYGAGLQFNPMENVALDFSYEQSRIRSVDVGTWIISVGYRFHRGYHAQRATSTVTGGYAQSDAQGQMNKMGGFNLKYRYEEDNSPLGVIGSFTYTEKSRTAS"}, "B12": {"name": "CPX with the streptavidin binding peptide fused to the N-terminus (pB33CPX-SApep) (other)", "chain": "GQSGQAECHPQGPPCIEGRKGGQSGQSGDYNKNQYYGITAGPAYRINDWASIYGVVGVGYGKFQTTEYPTYKHDTSDYGFSYGAGLQFNPMENVALDFSYEQSRIRSVDVGTWIAGVGYRFGGSGATSTVTGGYAQSDAQGQMNKMGGFNLKYRYEEDNSPLGVIGSFTYTEKSRTAS", "notes": "also called parent CPX scaffold"}, "B13": {"name": "eCPX displaying the CRP binding peptide (CRPpep) at the N-terminus (other)", "chain": "GQSGQEWACNDRGFNCQLQRGGQSGQSGDYNKNQYYGITAGPAYRINDWASIYGVVGVGYGKFQTTEYPTYKHDTSDYGFSYGAGLQFNPMENVALDFSYEQSRIRSVDVGTWILSVGYRFGSKSRRATSTVTGGYAQSDAQGQMNKMGGFNLKYRYEEDNSPLGVIGSFTYTEKSRTAS", "notes": "Disulfide-constrained peptide; also called CRP-1"}, "B14": {"name": "CPX-3X-3 displaying SApep at the N-terminus (other)", "chain": "GQSGQAECHPQGPPCIEGRKGGQSGQSGDYNKNQYYGITAGPAYRINDWASIYGVVGVGYGKFQTTEYPTYKHDTSDYGFSYGAGLQFNPMENVALDFSYEQSRIRSVDVGTWIAGVGYRFGTKATSTVTGGYAQSDAQGQMNKMGGFNLKYRYEEDNSPLGVIGSFTYTEKSRTAS"}, "B15": {"name": "CPX-3X-4 displaying SApep at the N-terminus (other)", "chain": "B14 chain with T123K"}, "B16": {"name": "CPX-5X-1 displaying SApep at the N-terminus (other)", "chain": "GQSGQAECHPQGPPCIEGRKGGQSGQSGDYNKNQYYGITAGPAYRINDWASIYGVVGVGYGKFQTTEYPTYKHDTSDYGFSYGAGLQFNPMENVALDFSYEQSRIRSVDVGTWIAGVGYRFGRTRKATSTVTGGYAQSDAQGQMNKMGGFNLKYRYEEDNSPLGVIGSFTYTEKSRTAS"}, "B17": {"name": "CPX-5X-4 displaying SApep at the N-terminus (other)", "chain": "B16 chain with G116S, R123S, T124Q, R125S"}, "B18": {"name": "CPX-5X-3 displaying SApep at the N-terminus (other)", "chain": "B16 chain with A115V, R123A, K126R"}, "B19": {"name": "CPX-5X-2 displaying SApep at the N-terminus (other)", "chain": "B16 chain with T124K, K126N"}, "B20": {"name": "CPX-6X-1 displaying SApep at the N-terminus (other)", "chain": "B2 chain with I115A, S116G, R124K, G125R, S126Y, Q127H"}, "B21": {"name": "CPX-6X-2 displaying SApep at the N-terminus (other)", "chain": "B2 chain with I115A, S116G, T123R, G125H, S126Y, Q127K"}, "B22": {"name": "CPX-6X-4 displaying SApep at the N-terminus (other)", "chain": "B2 chain with I115A, T123S, R124K, G125Q, Q127K"}, "B23": {"name": "CPX-6X-3 displaying SApep at the N-terminus (other)", "chain": "B2 chain with I115A, S116G, T123N, G125R, S126H, Q127R"}, "B24": {"name": "CPX-4X-1 displaying SApep at the N-terminus (other)", "chain": "B12 chain with G123S, S124K, G125R"}, "B25": {"name": "CPX-4X-4 displaying SApep at the N-terminus (other)", "chain": "B12 chain with A115V, G122P, G123R, S124K, G125S"}, "B26": {"name": "CPX-4X-3 displaying SApep at the N-terminus (other)", "chain": "B12 chain with G122S, G123W, S124P, G125N"}, "B27": {"name": "CPX-4X-2 displaying SApep at the N-terminus (other)", "chain": "B12 chain with G123R, S124Q, G125K"}}, "note": "Changes are numbered by the printed parent chain.", "data": [{"biological_target": "T1, biotinylated vascular endothelial growth factor (UniProt P15692-4 27-191, limits assumed)", "T1 construct": "also called VEGF; biotinylated VEGF", "T1 sequence (P15692 other isoform, or with tags, fused parts or gaps limits assumed)": "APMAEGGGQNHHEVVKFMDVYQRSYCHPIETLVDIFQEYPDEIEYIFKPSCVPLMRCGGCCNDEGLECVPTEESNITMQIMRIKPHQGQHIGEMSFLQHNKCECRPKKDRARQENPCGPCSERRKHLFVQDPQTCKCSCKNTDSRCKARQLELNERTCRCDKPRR", "experiment": "flow cytometry of E. coli displaying the construct, 65 nM biotinylated VEGF then 10 nM SA-PE; reference CPX display", "units": {"fold more efficient display than CPX": "fold"}, "values": [{"binder": "B1", "fold more efficient display than CPX": "> 3"}]}, {"biological_target": "T2, streptavidin-R-phycoerythrin (UniProt P22629 37-163, limits assumed)", "T2 construct": "Bought conjugate; also called SA-PE; fluorescently-conjugated streptavidin probe", "T2 sequence (P22629 37-163 limits assumed)": "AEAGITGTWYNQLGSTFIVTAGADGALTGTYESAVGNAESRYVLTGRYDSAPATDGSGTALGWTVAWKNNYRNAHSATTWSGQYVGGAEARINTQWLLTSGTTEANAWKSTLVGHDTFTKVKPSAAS", "experiment": "flow cytometry of E. coli displaying the construct, 100 nM SA-PE; 25 minutes of expression", "units": {"Relative Display level (fold fluorescence above background)": "fold above background"}, "values": [{"binder": "B2", "Relative Display level (fold fluorescence above background)": 29}, {"binder": "B3", "Relative Display level (fold fluorescence above background)": 27}, {"binder": "B4", "Relative Display level (fold fluorescence above background)": 24}, {"binder": "B5", "Relative Display level (fold fluorescence above background)": 17}, {"binder": "B6", "Relative Display level (fold fluorescence above background)": 28}, {"binder": "B7", "Relative Display level (fold fluorescence above background)": 33}, {"binder": "B8", "Relative Display level (fold fluorescence above background)": 19}, {"binder": "B9", "Relative Display level (fold fluorescence above background)": 23}, {"binder": "B10", "Relative Display level (fold fluorescence above background)": 26}, {"binder": "B11", "Relative Display level (fold fluorescence above background)": 33}, {"binder": "B12", "Relative Display level (fold fluorescence above background)": 1.5}]}, {"biological_target": "T3, biotinylated C-reactive protein (UniProt P02741 19-224, biotinylated)", "T3 construct": "also called CRP; biotinylated CRP", "T3 sequence (looked up)": "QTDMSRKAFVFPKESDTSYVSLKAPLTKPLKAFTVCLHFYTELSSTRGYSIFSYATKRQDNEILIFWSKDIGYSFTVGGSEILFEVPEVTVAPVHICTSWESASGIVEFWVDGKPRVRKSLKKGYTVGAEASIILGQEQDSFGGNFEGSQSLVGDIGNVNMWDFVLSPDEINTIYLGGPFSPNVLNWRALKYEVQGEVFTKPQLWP", "experiment": "flow cytometry of E. coli displaying the construct, 100 nM biotinylated CRP then 10 nM SA-PE; 30 minutes of expression; reference CPX display", "units": {"fold higher fluorescence labeling than for CPX": "fold"}, "values": [{"binder": "B13", "fold higher fluorescence labeling than for CPX": "~50"}]}, {"biological_target": "T2, streptavidin-R-phycoerythrin", "experiment": "flow cytometry of E. coli displaying the construct, 100 nM SA-PE; 50 minutes of expression", "units": {"Relative Display level (fold fluorescence above background)": "fold above background"}, "values": [{"binder": "B14", "Relative Display level (fold fluorescence above background)": 7.1}, {"binder": "B15", "Relative Display level (fold fluorescence above background)": 10}, {"binder": "B16", "Relative Display level (fold fluorescence above background)": 24}, {"binder": "B17", "Relative Display level (fold fluorescence above background)": 36}, {"binder": "B18", "Relative Display level (fold fluorescence above background)": 32}, {"binder": "B19", "Relative Display level (fold fluorescence above background)": 22}, {"binder": "B20", "Relative Display level (fold fluorescence above background)": 35}, {"binder": "B21", "Relative Display level (fold fluorescence above background)": 28}, {"binder": "B22", "Relative Display level (fold fluorescence above background)": 38}, {"binder": "B23", "Relative Display level (fold fluorescence above background)": 24}, {"binder": "B24", "Relative Display level (fold fluorescence above background)": 18}, {"binder": "B12", "Relative Display level (fold fluorescence above background)": 2.3}, {"binder": "B25", "Relative Display level (fold fluorescence above background)": 22}, {"binder": "B26", "Relative Display level (fold fluorescence above background)": 15}, {"binder": "B27", "Relative Display level (fold fluorescence above background)": 14}]}, {"biological_target": "T2, streptavidin-R-phycoerythrin", "experiment": "flow cytometry of E. coli displaying the construct, 100 nM SA-PE; 30 minutes of expression", "procedure": "To compare the display level of CPX and eCPX as a function of time of CPX and eCPX, cells were subcultured 1:50 from overnight stocks into 5 mL LB Cm and grown for 2 hours shaking (250 rpm) at 37° C. The cells were then moved to room temperature (22° C.) to equilibrate and induced with 0.04% (w/v) L-arabinose still shaking at 250 rpm. Five μL samples were taken prior to induction, 30, 60, and 90 minutes after induction then added to 50 μL of 100 nM SA-PE in PBS and incubated on ice for 45 minutes. After which the cells were centrifuged (3000 g, 5 min), supernatant removed, and resuspended in 500 μL ice cold PBS. Cells were immediately analyzed with a […] using 488 nm excitation and collected fluorescence data at 576 nm.\nThe cell surface display level of SApep was measured at incremental times after induction of expression for these three scaffolds. […] The level of display was measured before and after 30, 60, and 90 minutes of induction using flow cytometry (FIG. 1). […] After only 30 minutes of expression, the level of display of eCPX-nSApep was 50-fold above background autofluorescence.", "units": {"level of display (fold above background autofluorescence)": "fold above background"}, "values": [{"binder": "B7", "level of display (fold above background autofluorescence)": 50}]}]}
